In the supplement of paper PMC9170038:

Test system: MS2 coat protein
Assay: apparent KD of MS2 coat protein; designed switch direction (-1 OFF switch, 1 ON switch): -1; higher = weaker reporter binding
Procedure, shortened: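 Transcription of designed RNA switches on Illumina chips was done by stalled E. coli RNA polymerase. SNAP-549-labelled MS2 coat protein was then titrated in doubling steps from 0.7 or 1.5 nM to 3 µM, with steps of 0.8–1.5 h at the lowest and 10–20 min at the highest concentration. The per-design median over clusters of curve-fitted normalised fluorescence is reported as apparent KD.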

[1] = input ligand: microRNA oligo, concentration not stated
[2] = Eterna round: R95, input ligand: FMN 200 uM
[3] = Eterna round: R95, input ligand: microRNA oligo, concentration not stated
[4] = Eterna round: R95, input ligand: none

Row | Sequence | apparent KD of MS2 coat protein [1] | apparent KD of MS2 coat protein [2] | apparent KD of MS2 coat protein [3] | apparent KD of MS2 coat protein [4] | apparent KD of MS2 coat protein (input ligand: FMN 200 uM) | apparent KD of MS2 coat protein (input ligand: none)
1 | UUGUUGUAUGUAGGAUAUGCGUAUUAUUAUUAUGCAGAAGGACAUGAGGAUCACCCAUGUAUAUUAUUAUUAUAUGUUAUAUAU [Title] (Eterna round: R96, puzzle: Exclusion NG 1) | 17.9 nM | – | – | – | – | –
2 | UUGUUGUGUGUAGGAUAUGCAUAUUAUUAUUAUGCAGAAGGACAUGAGGAUCACCCAUGUGUAUUAUUAUUAUAUAUUAUAUAU [Title] (Eterna round: R96, puzzle: Exclusion NG 1) | 18.3 nM | – | – | – | – | –
3 | UUUAAAACAUAGGAUAUCGAAAUUAUCAUUUAACGAGAAGGAUGAACAUGAGGAUCACCCAUGUGGUAUCAUGG [Mat - Exclusion 6 - JL Mod - D17] (puzzle: Exclusion 6) | – | 202 nM | 184 nM | 123 nM | – | –
4 | UUUAAUUUUUUUUUUUUACAAGCUUUUUGCUCGUCUUAUACAUGAGGAUCACCCAUGUAAGUGGAGGGUAAAUUAUC [JMF 87] (puzzle: Sensor v3, turn-off variant 2) | – | 19.4 nM | 39.4 nM | 15.2 nM | – | –
5 | UUUAAUUUUUUUUUUUUACAAGCUUUUUGCUCGUCUUAUACAUGAGGAUCACCCAUGUAGAUGGGAAGUAAAUUAUC [JMF 53] (puzzle: Sensor v3, turn-off variant 2) | – | 24.7 nM | 200 nM | 24.5 nM | – | –
6 | UUUAAUUUUUUUUUUUUACAAGCUUUUUGCUCGUCUUAUACAUGAGGAUCACCCAUGUAGGUGAGGGAUAAAUUAUC [JMF 43] (puzzle: Sensor v3, turn-off variant 2) | – | 29.1 nM | 150 nM | 27.3 nM | – | –
7 | UUUAAUUUUUUUUUUUUACAAGCUUUUUGCUCGUCUUAUACAUGAGGAUCACCCAUGUAGGUGGAGGAUAAAUUAUC [JMF 36] (puzzle: Sensor v3, turn-off variant 2) | – | 23.5 nM | 56.1 nM | 25.5 nM | – | –
8 | UUUAAUUUUUUUUUUUUACAAGCUUUUUGCUCGUCUUAUACAUGAGGAUCACCCAUGUAGGUGGAGGGUAAAUUAUC [JMF 90] (puzzle: Sensor v3, turn-off variant 2) | – | 15.6 nM | 44.1 nM | 13.1 nM | – | –
9 | UUUAAUUUUUUUUUUUUACAAGCUUUUUGCUCGUCUUAUACAUGAGGAUCACCCAUGUGAAUGGGAGAUAAAUUAUC [JMF 18] (puzzle: Sensor v3, turn-off variant 2) | – | 356 nM | 508 nM | 456 nM | – | –
10 | UUUAAUUUUUUUUUUUUACAAGCUUUUUGCUCGUCUUAUACAUGAGGAUCACCCAUGUGGGUGGAGGAUAAAUUAUC [JMF 35] (puzzle: Sensor v3, turn-off variant 2) | – | 60.6 nM | 45.4 nM | 93.9 nM | – | –
11 | UUUAGUUCAGGAUAUGAUGAAAUUAACAUGAGGAUCACCCAUGUAGAUCCUGAAUUAACAUCAGAAGGGAACAUUU [JL-ex5-4.44 Brourd mod] (Eterna round: R97, puzzle: Exclusion 5) | – | – | – | – | 57.8 nM | 10.8 nM
12 | UUUAGUUCAGGAUAUGUAGAAUUAAACAUGAGGAUCACCCAUGUAGUUCCUGAUCCUGCUACAGAAGGGAACAUUU [Mat - Exclusion 5 - Eli Mod - D13] (Eterna round: R97, puzzle: Exclusion 5) | – | – | – | – | 24.8 nM | 17.2 nM
13 | UUUAGUUCAGGAUAUGUAGAUAUUAACAUGAGGAUCACCCAUGUAGAUCCUGAAUUGACUACAGAAGGGAGCAUUU [Mod of Brourd 17 - Jieux - Exclusion 5] (Eterna round: R97, puzzle: Exclusion 5) | – | – | – | – | 44.7 nM | 17.7 nM
14 | UUUAUAUAGUAAGGAUAUGUAUUAUGUUUAUCAACAGAAGGUACUGACAUGAGGAUCACCCAUGUUUUAGUGUGGGCAUGUAGU [JMF's solution 95] (Eterna round: R96, puzzle: Exclusion NG 1) | 181 nM | – | – | – | – | –
